{"source": "paper PMC4442108", "about": "“Preclinical Validation of the Heparin-Reactive Peptide p5+14 as a Molecular Imaging Agent for Visceral Amyloidosis” (Molecules, 2015)", "key": {"[1]": {"assay": "Solution stability (stated, unpublished data)", "format": "physicochemical", "conditions": "Wall and Kennel"}, "[2]": {"assay": "Dynamic PET/CT pharmacokinetics of 124I-p5+14 in WT mice", "format": "in vivo, mouse (WT)", "conditions": "post injection", "description": "Dynamic PET imaging required radioiodination of the peptide with positron emitter, Iodine-124 (^124I; IBA Molecular, Sterling, WV, USA). Peptide p5+14 was radiolabeled using the Iodogen (Piercechemical, Rockford, IL, USA) oxidation method, as described. Briefly, 10 µL of 0.5 M NaPO4 buffer pH 7.6 was added to a 1.5 mL microcentrifuge tube followed by addition of ~50 µL of ^124I (~2 mCi). One µL of 2 mg/mL fresh ascorbic acid solution in phosphate buffered saline (PBS) was added to ensure complete reduction of ^124I-iodine. Approximately 25 µL (~50 µg) of peptide dissolved in distilled H2O was mixed with ~75 µL of PBS and added to the reaction mixture. Seven µL of 1 mg/mL Iodogen dissolved in acetonitrile was added to initiate the reaction. After 2 min, the reaction was quenched by addition of 50 µL of 2 mg/mL ascorbic acid. Twenty µL of blue dextran and 50 µL of filtered (0.2 µm pore sized) 0.1% gelatin in PBS were added to the reaction mixture. Radiolabeled product was separated from free ^124I by size exclusion chromatography as described above. Fractions were manually collected as the blue dextran marker reached the base of the column and the radioactivity in each measured using a dose calibrator (Capintec, Model 15, Ramsey, NJ, USA) set for ^124I detection. Peak fractions were pooled for use in the study, and radiopurity was assessed as described above. […]"}, "[3]": {"molecular_target": "synthetic amyloid fibrils of recombinant human λ6 light chain variable domain of patient Wil (rVλ6Wil) (human)", "assay": "co-sedimentation; ex vivo amyloid binding assay: 25 µL of 1 mg/mL synthetic rVλ6Wil fibrils resuspended in 200 µL PBS with 0.05% Tween-20, ~5 ng 125I-p5+14 added, rotated at RT for 1 h, centrifuged twice at 15,000 x g; % of counts in the pellet"}, "[4]": {"molecular_target": "synthetic amyloid fibrils of recombinant human λ6 light chain variable domain of patient Wil (rVλ6Wil) (human)", "assay": "co-sedimentation; peptide binding assay with rVλ6Wil fibrils in suspension in 10 mM phosphate buffer (pH 7.6) containing 0.15 (PBS), 0.25, 0.5, 1.0 or 2.0 M NaCl; bound peptide as % total counts added; n = 2"}, "[5]": {"molecular_target": "synthetic amyloid fibrils of recombinant human λ6 light chain variable domain of patient Wil (rVλ6Wil) (human)", "assay": "ELISA; EuLISA: rVλ6Wil fibrils coated and dried on NUNC Maxisorb wells (8 µg/mL, 50 µL, overnight 37 °C), blocked with 1% BSA; biotinylated p5+14 1 x 10^-10 to 1 x 10^-6 M, 1 h at 37 °C, PBS with 0.05% Tween 20; europium/streptavidin detection; n = 3"}}, "note": "Where no end group is shown, it is not given here. The star is where a group is joined. 125I = [125I]*", "data": [{"molecule": "GGGYSKAQKAQAKQAKQAQKAQKAQAKQAKQAQKAQKAQAKQAKQ [p5+14]", "values": [{"measurement": "solution stability relative to p5", "setting": "[1]", "value": "greater solution stability"}, {"measurement": "time to clearance from healthy organs", "setting": "[2]", "value": "≤ 2", "unit": "h"}]}, {"molecule": "GGGY(125I)SKAQKAQAKQAKQAQKAQKAQAKQAKQAQKAQKAQAKQAKQ", "note": "[125I-p5+14 (radioiodinated peptide p5+14)]", "values": [{"measurement": "% bound", "setting": "[3]", "value": 95.7, "unit": "%"}, {"measurement": "% bound at 2 M NaCl", "setting": "[4]", "value": 20, "unit": "%"}, {"measurement": "% bound at the lowest NaCl concentration (0.15 M)", "setting": "[4]", "value": 95, "unit": "%"}, {"measurement": "NaCl concentration at half-maximal loss of binding (printed as EC50)", "setting": "[4]", "value": 1, "unit": "M"}]}, {"molecule": "C(maleimide‑biotin)GGGYSKAQKAQAKQAKQAQKAQKAQAKQAKQAQKAQKAQAKQAKQ", "note": "[biotinylated p5+14 (with a cysteine residue at the N-terminal)]", "values": [{"measurement": "EC50", "setting": "[5]", "value": 15, "unit": "nM"}]}]}
